Where a SMILES comes first, the peptide text is derived from it. Where no end group is shown, it is not given here. [ ]: non-standard residue; d: D form. pY = N[C@@H](Cc1ccc(OP(=O)(O)O)cc1)C(=O)O; 2Nal = N[C@@H](Cc1ccc2ccccc2c1)C(=O)O; Tic = O=C(O)[C@@H]1Cc2ccccc2CN1

Broadly, the EC50 is the midpoint of the concentration-response curve.

In one assay the target is T1, CXCR4 (Homo sapiens, UniProt P61073).
T1 construct: A full-length clone was not isolated with the 3′ and 5′ primers; however, two halves were isolated and ligated together; made in house; host or cells: High Five (Trichoplusia ni) insect cells, baculovirus; membrane preparation
T1 sequence (P61073 whole entry): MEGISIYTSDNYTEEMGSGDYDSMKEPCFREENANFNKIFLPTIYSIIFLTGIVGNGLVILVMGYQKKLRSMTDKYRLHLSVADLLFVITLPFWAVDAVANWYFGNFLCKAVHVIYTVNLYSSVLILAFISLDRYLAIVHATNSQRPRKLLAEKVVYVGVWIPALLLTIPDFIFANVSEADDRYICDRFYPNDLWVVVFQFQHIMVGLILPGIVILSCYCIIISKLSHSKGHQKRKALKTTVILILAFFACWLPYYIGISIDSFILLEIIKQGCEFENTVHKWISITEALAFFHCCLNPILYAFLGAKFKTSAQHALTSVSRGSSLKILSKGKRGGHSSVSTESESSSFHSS
Description: radioligand binding assay, [125I]-SDF-1α on membrane preparations of GST-CXCR4 (High Five). Conditions: increasing [125I]-SDF-1α 0.5 nM to 10 nM; GST-CXCR4 (High Five) membranes; FIG. 7A; read-out: KD, saturation binding.

The target in a further assay is T2, SH2 (src) (Homo sapiens, UniProt P12931).
T2 construct: SH2 (src)
Conditions: binding domain SH2 (src); cited from earlier work.

For another assay, the system named is HIV IIIb. It counts as cell-based, HIV-1. How it is done: Several of these peptides have also been screened for activity in inhibition of HIV infectivity and determined to be effective in specifically blocking the entrance of HIV into cells with EC50's in the nM range. For example, the assays depicted in FIG. 12 confirm the inhibition of HIV infection by CXCR4 peptide inhibitors.
The anti-HIV activity of exemplary compounds was tested using established adherent HELA cells or Magi cell-based (Magi cell line incorporating the reporter genes) cell line infected with a variety of HIV-1 isolates. Inhibitory activity was determined using a reporter system. The cell line was modified to contain the gene for the HIV-LTR (long terminal repeat) promoter which is used by HIV after infection. This gene was coupled to an enzyme, β-galactosidase, which can cleave a substrate, CPRG (Chlorophenol red β-D-galactoside) which gives rise to a colored signal or FDG (Fluorescein di-Galactoside) which gives rise to a fluorescent signal. Thus, if the cell becomes infected with HIV, it couples to the HIV-LTR promoter, producing the enzyme β-galactosidase, which then cleaves the CPRG substrate giving rise to a measurable absorbance signal, for example, at or about 595 nm. […]
Measurements were taken four days after infection. […] EC50's were determined graphically using Kaleidagraph, a software program sold by Synergy Software, Reading, PA. […]

Description for CXCR4: Relative affinities were measured by modifying the radiolabel binding assay used in receptor purification. Therefore, the ability of these peptides to displace [1^251]-SDF-1 from purified CXCR4 membranes was measured.
Whole cells from Sf9 and High five cell lines were lysed using hypotonic buffers (10 mM Tris, pH 7.4, 5 mM EDTA), and membrane preparations were made by homogenization and centrifugation using standard techniques known to those skilled in the art. […] For filtration and washing, the reaction was transferred to Millipore Multiscreen filter plates (HATF 0.45 μm; pre-blocked with 10% BSA) (Bedford, Mass.), filtered using vacuum, washed 4-5 times with 200 μL ice-cold buffer, and radioactive counts bound were detected using scintillation counting. All points were done in triplicate. Uninfected cells were used as a control for this experiment. […] Analyses of KD and IC50 were performed using non-linear curve fitting in Kaleidagraph (software program sold by Synergy Software, Reading, Pa.).
The affinity for the receptor was determined using standard radioligand displacement methodology.

“[^125I]-SDF-1α: radiolabeled SDF-1α, the radioligand of the CXCR4 binding assay”: the Kd with CXCR4 was found to be 3.27 nM. As to pYEEIY ([pY]EEIY), the Kd with SH2 (src) is 100 nM.

As to `CC[C@H](C)[C@H](NC(=O)[C@H](CC(C)C)NC(=O)[C@H](CO)NC(=O)[C@H](CCCNC(=N)N)NC(=O)[C@H](C)N)C(=O)N[C@@H](Cc1ccc2ccccc2c1)C(=O)N[C@@H](CCCNC(=N)N)C(=O)N1Cc2ccccc2C[C@H]1C(=O)N[C@@H](C)C(=O)N[C@@H](CCCNC(=N)N)C(=O)N[C@@H](CCCNC(=N)N)C(=O)N[C@@H](Cc1ccc2ccccc2c1)C(=O)N[C@@H](CCCNC(=N)N)C(=O)N[C@@H](CCCNC(=N)N)C(N)=O` [CPI-1500, ARSLI(2-Nal)R(Tic)ARR(2-Nal)RR] (H-ARSLI[2Nal]R[Tic]ARR[2Nal]RR-NH2; N-terminus assumed), the viral specificity entry in the assay on HIV IIIb (HIV IIIb versus R5 virus 9881) was “specificity for the HIV IIIb over the R5 virus 9881”. In the assay with HIV IIIb (HIV IIIb, FIG. 12A, read-out: EC50, inhibition of infection of HIV IIIb), the concentration for a half-maximal effect (EC50) was 280 nM.

The values above are taken from patent US20030167129A1, “Binding compounds and methods for identifying binding compounds” (priority 2000, published 2003).
